From patent publication US20220089722A1 (NANTONG YICHEN BIOPHARMA, published 2022) come the findings set out here.

A word on the Kd: it is the concentration at which binding is half-saturated. A lower Kd goes with higher affinity.

The target of test [1] is T1, EGFR on F98-EGFR cells (UniProt P00533 25-1210, limits assumed). Description: cell-based or functional assay.
In test [2] the target is T1, EGFR on F98-EGFR cells. Briefly: flow cytometry on F98-EGFR cells. The procedure: F98-EGFR cells (a DMEM containing 10% FBS, 200 μg/ml G418) were cultured. 2×10⁵ cells were washed by precooled PBS for 3 times, and blocked by 2% FBS (soluble to PBS). IgFD-8, IgFD-9, IgFD-10, IgFD-11, IgFD-18, IgFD-19, IgFD-25, IgFD-26 or IgFD-31 (aEGFR expressed in a laboratory as a control) was added and incubated for 2 h at 4° C. (cells were gently mixed during incubation), unbounded antibodies were washed by 2% FBS (soluble to PBS), and then the remaining cells were incubated by FITC anti-human IgGFc(KPL, Inc., MD) for 1 h at 4° C., and washed by 2% FBS (soluble to PBS) for flow cytometry analysis. As shown in FIG. 7 and Table 4, the anti-CD3/anti-EGFR heterodimers in different forms of fusion could bind to EGFR on F98-EGFR cells, and there was no significant difference in the binding capacity of different heterodimers to F98-EGFR.
(Flow cytometry measures light scatter and fluorescence of single cells or particles in a stream.)

Test [3] concerns the target T2, CD3 on T cells (Jurkat T cells; PBMC-T cells).
T2 construct: whole, on cells; the target is inferred from the anti-CD3 arm of the constructs
Briefly: flow cytometry on Jurkat T cells. The procedure:
Jurkat cells (a medium containing 10% FBS) were cultured. 2×10⁵ cells were washed by precooled PBS for 3 times, and blocked by 2% FBS (soluble to PBS). Purified IgFD-11, IgFD-8, IgFD-25, IgFD-26, IgFD-31 or IgFD-36 (aEGFR expressed in a laboratory as a control) were added and incubated for 2 h at 4° C. (cells were gently mixed during incubation), followed by 2% FBS(in PBS) wash. The cells were incubated by FITC anti-human IgGFc (KPL, Inc., MD) for 1 h at 4° C. and subjected to flow cytometry analysis after washing with 2% FBS(in PBS).

Test [4] concerns the target T1, EGFR on F98-EGFR cells. Description: flow cytometry on F98-EGFR cells; protein purified on CH1 resin.
Test [5] has as its target T2, CD3 on T cells (Jurkat T cells; PBMC-T …). Briefly: flow cytometry on Jurkat T cells; protein purified on CH1 resin.
The target in test [6] is T1, EGFR on F98-EGFR cells. Description: flow cytometry on F98-EGFR cells; protein purified on Protein A resin.
The target in test [7] is T2, CD3 on T cells (Jurkat T cells; PBMC-T …). Description: flow cytometry on Jurkat T cells; protein purified on Protein A resin.

T2 sequence (P07766 23-207): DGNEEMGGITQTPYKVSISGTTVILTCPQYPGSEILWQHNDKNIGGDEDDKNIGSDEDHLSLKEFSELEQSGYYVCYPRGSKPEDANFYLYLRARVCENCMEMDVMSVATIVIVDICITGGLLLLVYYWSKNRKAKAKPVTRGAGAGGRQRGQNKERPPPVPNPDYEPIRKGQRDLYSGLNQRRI

B1: IgFD-25(anti-CD3/EGFR) (bispecific antibody, human IgG1, kappa)
chain 1: EVQLVESGGGLVQPGGSLRLSCAASGFTFNTYAMNWVRQAPGKGLEWVARIRSKYNNYATYYADSVKDRFTISRDDSKNTLYLQMNSLRAEDTAVYYCVRHGNFGNSYVSWFAYWGQGTLVTVSSASTKGPSVFPLAPSSKSTSGGTAALGCLVKDYFPEPVTVSWNSGALTSGVHTFPAVLQSSGLYSLSSVVTVPSSSLGTQTYICNVNHKPSNTKVDKKVEPKSCDKTHTCPPCPAPPVAGPSVFLFPPKPKDTLMISRTPEVTCVVVDVSHEDPEVKFNWYVDGVEVHNAKTKPREEQYNSTYRVVSVLTVLHQDWLNGKEYKCKVSNKGLPSSIEKTISKAKGQPREPQVYTLPPCRDELTKNQVSLWCLVKGFYPSDIAVEWESNGQPENNYKTTPPVLDSDGSFFLYSKLTVDKSRWQQGNVFSCSVMHEALHNHYTQKSLSLSPGK
chain 2: QAVVTQEPSLTVSPGGTVTLTCRSSTGAVTTSNYANWVQQKPDHLFRGLIGGTNKRAPGTPARFSGSLLGDKAALTISGAQPEDEAEYYCALWYSNLWVFGGGTKLTVLKRTVAAPSVFIFPPSDEQLKSGTASVVCLLNNFYPREAKVQWKVDNALQSGNSQESVTEQDSKDSTYSLSSTLTLSKADYEKHKVYACEVTHQGLSSPVTKSFNRGECDKTHTCPPCPAPPVAGPSVFLFPPKPKDTLMISRTPEVTCVVVDVSHEDPEVKFNWYVDGVEVHNAKTKPREEQYNSTYRVVSVLTVLHQDWLNGKEYKCKVSNKGLPSSIEKTISKAKGQPREPQVCTLPPSRDELTKNQVSLSCAVKGFYPSDIAVEWESNGQPENNYKTTPPVLDSDGSFFLVSKLTVDKSRWQQGNVFSCSVMHEALHNHYTQKSLSLSPGKGGSGGSGGGGSGGGGSDIQMTQSPSSLSASVGDRVTITCQASQDISNYLNWYQQKPGKAPKLLIYDASNLETGVPSRFSGSGSGTDFTFTISSLQPEDIATYFCQHFDHLPLAFGGGTKVEIKGGGGSGGGGSGGGGSQVQLQESGPGLVKPSETLSLTCTVSGGSVSSGDYYWTWIRQSPGKGLEWIGHIYYSGNTNYNPSLKSRLTISIDTSKTQFSLKLSSVTAADTAIYYCVRDRVTGAFDIWGQGTMVTVSS
On to B1, for which the “Promotion for the specific killing effect of PBMCs on target cells by heterodimers (EC50, pM); F98-EGFR cells, LDH assay” value in test [1] is 11 pM. Besides, the results for the Kd in test [2] and in test [3] were 1.12 nM and 7.72 nM, respectively.

B2: IgFD-30(anti-CD3/EGFR) (bispecific antibody, human IgG1, kappa)
chain 1: EVQLVESGGGLVQPGGSLRLSCAASGFTFNTYAMNWVRQAPGKGLEWVARIRSKYNNYATYYADSVKDRFTISRDDSKNTLYLQMNSLRAEDTAVYYCVRHGNFGNSYVSWFAYWGQGTLVTVSSASTKGPSVFPLAPSSKSTSGGTAALGCLVKDYFPEPVTVSWNSGALTSGVHTFPAVLQSSGLYSLSSVVTVPSSSLGTQTYICNVNHKPSNTKVDKKVEPKSCDKTHTCPPCPAPPVAGPSVFLFPPKPKDTLMISRTPEVTCVVVDVSHEDPEVKFNWYVDGVEVHNAKTKPREEQYNSTYRVVSVLTVLHQDWLNGKEYKCKVSNKGLPSSIEKTISKAKGQPREPQVYTLPPCRDELTKNQVSLWCLVKGFYPSDIAVEWESNGQPENNYKTTPPVLDSDGSFFLYSKLTVDKSRWQQGNVFSCSVMHEALHNHYTQKSLSLSPGKGGSGGSGGGGSGGGGSDIQMTQSPSSLSASVGDRVTITCQASQDISNYLNWYQQKPGKAPKLLIYDASNLETGVPSRFSGSGSGTDFTFTISSLQPEDIATYFCQHFDHLPLAFGGGTKVEIK
chain 2: QAVVTQEPSLTVSPGGTVTLTCRSSTGAVTTSNYANWVQQKPDHLFRGLIGGTNKRAPGTPARFSGSLLGDKAALTISGAQPEDEAEYYCALWYSNLWVFGGGTKLTVLKRTVAAPSVFIFPPSDEQLKSGTASVVCLLNNFYPREAKVQWKVDNALQSGNSQESVTEQDSKDSTYSLSSTLTLSKADYEKHKVYACEVTHQGLSSPVTKSFNRGECDKTHTCPPCPAPPVAGPSVFLFPPKPKDTLMISRTPEVTCVVVDVSHEDPEVKFNWYVDGVEVHNAKTKPREEQYNSTYRVVSVLTVLHQDWLNGKEYKCKVSNKGLPSSIEKTISKAKGQPREPQVCTLPPSRDELTKNQVSLSCAVKGFYPSDIAVEWESNGQPENNYKTTPPVLDSDGSFFLVSKLTVDKSRWQQGNVFSCSVMHEALHNHYTQKSLSLSPGKGGSGGSGGGGSGGGGSQVQLQESGPGLVKPSETLSLTCTVSGGSVSSGDYYWTWIRQSPGKGLEWIGHIYYSGNTNYNPSLKSRLTISIDTSKTQFSLKLSSVTAADTAIYYCVRDRVTGAFDIWGQGTMVTVSS
notes: (ProA)/(CH1) = purification resin; also called IgFD-30(ProA); IgFD-30(CH1)
In the case of B2, the Kd in test [4] was found to be 86.3 nM; in test [5] it was 7.35 nM; in test [6] it was 131 nM; in test [7], 6.74 nM. Also, the “Promotion for the specific killing effect of PBMCs on target cells by heterodimers (EC50, pM); F98-EGFR cells, LDH assay; IgFD-30(CH1)” value in test [1] came to 435 pM. The “Promotion for the specific killing effect of PBMCs on target cells by heterodimers (EC50, pM); F98-EGFR cells, LDH assay; IgFD-30(ProA)” value in test [1] amounted to 651 pM.

B3: IgFD-26(anti-CD3/EGFR) (bispecific antibody, human IgG1, kappa, N297A)
chain 1: not shown
chain 2: QAVVTQEPSLTVSPGGTVTLTCRSSTGAVTTSNYANWVQQKPDHLFRGLIGGTNKRAPGTPARFSGSLLGDKAALTISGAQPEDEAEYYCALWYSNLWVFGGGTKLTVLKRTVAAPSVFIFPPSDEQLKSGTASVVCLLNNFYPREAKVQWKVDNALQSGNSQESVTEQDSKDSTYSLSSTLTLSKADYEKHKVYACEVTHQGLSSPVTKSFNRGECDKTHTCPPCPAPELLGGPSVFLFPPKPKDTLMISRTPEVTCVVVDVSHEDPEVKFNWYVDGVEVHNAKTKPREEQYASTYRVVSVLTVLHQDWLNGKEYKCKVSNKALPAPIEKTISKAKGQPREPQVCTLPPSREEMTKNQVSLSCAVKGFYPSDIAVEWESNGQPENNYKTTPPVLDSDGSFFLVSKLTVDKSRWQQGNVFSCSVMHEALHNHYTQKSLSLSPGKGGSGGSGGGGSGGGGSDIQMTQSPSSLSASVGDRVTITCQASQDISNYLNWYQQKPGKAPKLLIYDASNLETGVPSRFSGSGSGTDFTFTISSLQPEDIATYFCQHFDHLPLAFGGGTKVEIKGGGGSGGGGSGGGGSQVQLQESGPGLVKPSETLSLTCTVSGGSVSSGDYYWTWIRQSPGKGLEWIGHIYYSGNTNYNPSLKSRLTISIDTSKTQFSLKLSSVTAADTAIYYCVRDRVTGAFDIWGQGTMVTVSS
On to B3, for which the “Promotion for the specific killing effect of PBMCs on target cells by heterodimers (EC50, pM); F98-EGFR cells, LDH assay” value in test [1] turned out to be 105 pM. The Kd in test [2] is 5.28 nM; in test [3] it was 4.23 nM.

B4: IgFD-31(anti-CD3/EGFR) (bispecific antibody)
chain 1: EVQLVESGGGLVQPGGSLRLSCAASGFTFNTYAMNWVRQAPGKGLEWVARIRSKYNNYATYYADSVKDRFTISRDDSKNTLYLQMNSLRAEDTAVYYCVRHGNFGNSYVSWFAYWGQGTLVTVSSASTKGPSVFPLAPSSKSTSGGTAALGCLVKDYFPEPVTVSWNSGALTSGVHTFPAVLQSSGLYSLSSVVTVPSSSLGTQTYICNVNHKPSNTKVDKKVEPKSCGGSGAKLAALKAKLAALKGGGGSDKTHTCPPCPAPPVAGPSVFLFPPKPKDTLMISRTPEVTCVVVDVSHEDPEVKFNWYVDGVEVHNAKTKPREEQYNSTYRVVSVLTVLHQDWLNGKEYKCKVSNKGLPSSIEKTISKAKGQPREPQVYTLPPSRDELTKNQVSLTCLVKGFYPSDIAVEWESNGQPENNYKTTPPVLDSDGSFFLYSKLTVDKSRWQQGNVFSCSVMHEALHNHYTQKSLSLSPGK
chain 2: QAVVTQEPSLTVSPGGTVTLTCRSSTGAVTTSNYANWVQQKPDHLFRGLIGGTNKRAPGTPARFSGSLLGDKAALTISGAQPEDEAEYYCALWYSNLWVFGGGTKLTVLKRTVAAPSVFIFPPSDEQLKSGTASVVCLLNNFYPREAKVQWKVDNALQSGNSQESVTEQDSKDSTYSLSSTLTLSKADYEKHKVYACEVTHQGLSSPVTKSFNRGECGGGGSELAALEAELAALEAGGSGDKTHTCPPCPAPPVAGPSVFLFPPKPKDTLMISRTPEVTCVVVDVSHEDPEVKFNWYVDGVEVHNAKTKPREEQYNSTYRVVSVLTVLHQDWLNGKEYKCKVSNKGLPSSIEKTISKAKGQPREPQVYTLPPSRDELTKNQVSLTCLVKGFYPSDIAVEWESNGQPENNYKTTPPVLDSDGSFFLYSKLTVDKSRWQQGNVFSCSVMHEALHNHYTQKSLSLSPGKGGSGGSGGGGSGGGGSDIQMTQSPSSLSASVGDRVTITCQASQDISNYLNWYQQKPGKAPKLLIYDASNLETGVPSRFSGSGSGTDFTFTISSLQPEDIATYFCQHFDHLPLAFGGGTKVEIKGGGGSGGGGSGGGGSQVQLQESGPGLVKPSETLSLTCTVSGGSVSSGDYYWTWIRQSPGKGLEWIGHIYYSGNTNYNPSLKSRLTISIDTSKTQFSLKLSSVTAADTAIYYCVRDRVTGAFDIWGQGTMVTVSS
Turning to B4, the Kd came out at 5.47 nM in test [2] and 4.16 nM in test [3].
